Source: patent US20180169257A1 (Seagen, published 2018)

T1: human NTB-A (human, UniProt Q96DU3 22-332)
T1 sequence: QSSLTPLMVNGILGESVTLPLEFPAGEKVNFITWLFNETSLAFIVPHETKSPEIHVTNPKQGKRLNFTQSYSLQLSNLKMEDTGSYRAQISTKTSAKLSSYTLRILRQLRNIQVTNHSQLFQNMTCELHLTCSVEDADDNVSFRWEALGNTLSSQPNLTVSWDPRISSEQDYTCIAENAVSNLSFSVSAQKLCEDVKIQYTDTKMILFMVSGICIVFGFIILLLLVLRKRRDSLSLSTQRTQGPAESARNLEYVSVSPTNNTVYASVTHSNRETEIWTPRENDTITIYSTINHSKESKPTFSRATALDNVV

B1: humanized 20F3 HDLD antibody (antibody, V domains shown)
VH: QIQLVQSGSELKKPGASVKVSCKASGYTFTNYGMNWVRQAPGQDLKWMGWINTYSGEPRYADDFKGRFVFSLDKSVNTAYLQISSLKAEDTAVYYCARDYGRWYFDVWGQGTTVTVSS
VL: QIVLSQSPATLSLSPGERATMSCRASSSVSHMHWYQQKPGQAPRPWIYATSNLASGVPARFSGSGSGTDYTLTISSLEPEDFAVYYCQQWSSTPRTFGGGTKVEIKR
notes: also called h20F3_HDLD; h20F3_HDLD-AF647
B2: c20F3-1910(2) ADC (other)
VH: QIQLVQSGPELKKPGETVKISCKASGYTFTNYGMNWVKQAPGKDLKWMGWINTYSGEPRYADDFKGRFAFSLEKSANTAYLQINNLKNEDMATYFCARDYGRWYFDVWGTGTTVTVSS
VL: QIVLSQSPAILSASPGEKVTMTCRASSSVSHMHWYQQKPGSSPKPWIYATSNLASGVPARFSGSGSGTSYSLTISRVEAEDAATYYCQQWSSTPRTFGGGTKLEIKR
modifications: PBD dimer drug-linker 1910, load 2 by its name; attachment site not stated for the chimeric antibody
B3: c20F3-vcMMAE(4) ADC (other)
VH: QIQLVQSGPELKKPGETVKISCKASGYTFTNYGMNWVKQAPGKDLKWMGWINTYSGEPRYADDFKGRFAFSLEKSANTAYLQINNLKNEDMATYFCARDYGRWYFDVWGTGTTVTVSS
VL: QIVLSQSPAILSASPGEKVTMTCRASSSVSHMHWYQQKPGSSPKPWIYATSNLASGVPARFSGSGSGTSYSLTISRVEAEDAATYYCQQWSSTPRTFGGGTKLEIKR
modifications: MMAE via a cathepsin-cleavable valine-citrulline linker, load 4 by its name; attachment sites not stated
B4: h20F3ec (antibody, human IgG1, kappa, V domains shown)
VH: QIQLVQSGSELKKPGASVKVSCKASGYTFTNYGMNWVRQAPGQDLKWMGWINTYSGEPRYADDFKGRFVFSLDKSVNTAYLQISSLKAEDTAVYYCARDYGRWYFDVWGQGTTVTVSS
VL: QIVLSQSPATLSLSPGERATMSCRASSSVSHMHWYQQKPGQAPRPWIYATSNLASGVPARFSGSGSGTDYTLTISSLEPEDFAVYYCQQWSSTPRTFGGGTKVEIKR
B5: chimeric 20F3 (antibody, V domains shown)
VH: QIQLVQSGPELKKPGETVKISCKASGYTFTNYGMNWVKQAPGKDLKWMGWINTYSGEPRYADDFKGRFAFSLEKSANTAYLQINNLKNEDMATYFCARDYGRWYFDVWGTGTTVTVSS
VL: QIVLSQSPAILSASPGEKVTMTCRASSSVSHMHWYQQKPGSSPKPWIYATSNLASGVPARFSGSGSGTSYSLTISRVEAEDAATYYCQQWSSTPRTFGGGTKLEIKR
notes: It was detected with goat anti-human IgG, so the constant regions are human, but they are not specified

Legend:
human NTB-A [1] = target: T1, human NTB-A; assay: cell-based or functional assay
human NTB-A [2] = target: T1, human NTB-A; assay: antigen binding competition assay on Ramos cells
Protocol: (§1) Antigen positive Ramos cells were plated at 1×10⁵ cells per well in a 96 well V-bottom plate (Thermo Scientific, Rochester, N.Y.). Fifty-fold serial dilutions of antibodies were prepared in FACs buffer (PBS+2% fetal bovine serum) and were added to the cells in duplicate. The antibody solutions were incubated with cells for 1 hour on ice, protected from light. The cells were washed twice with FACs buffer and analyzed on the LSRII flow cytometer (BD BioSciences, San Jose, Calif.). EC50 values were determined with GraphPad Prism software (La Jolla, Calif.).

human NTB-A [3] = target: T1, human NTB-A; assay: competition flow cytometry on Ramos cells; competitor 5 nM mouse 20F3-Alexa Fluor 647
Protocol: as §1

human NTB-A [4] = target: T1, human NTB-A; assay: saturation binding of Alexa Fluor 647-labeled antibody (h20F3_HDLD-AF647) on Ramos cells, flow cytometry
Protocol: (§2) Antigen positive Ramos cells were plated at 1×10⁵ cells per well in a 96 well V-bottom plate (Thermo Scientific, Rochester, N.Y.). Three-fold serial dilutions of 2× concentrated antibodies were prepared in FACs buffer (PBS+2% fetal bovine serum) and were added to the cells in duplicate. The antibody solutions were incubated with cells for 1 hour on ice, protected from light. The cells were washed twice with FACs buffer and analyzed on the LSRII flow cytometer (BD BioSciences, San Jose, Calif.). KD values were determined with GraphPad Prism software (La Jolla, Calif.). Anti-human NTB-A antibodies h20F3_HDLD and chimeric 20F3 were tested for binding to 293-F17 cells overexpressing cynomolgus-NTB-A. 293-F17/cynomolgus-NTB-A cells were plated at 5×10⁵ cells/well in FACS buffer (PBS+2% fetal bovine serum+0.02% azide) and incubated with 20 μg/mL antibody for 30 minutes on ice. The cells were washed twice and stained with 30 μg/mL goat anti-human IgG-PE (Jackson ImmunoResearch, West Grove, Pa.) for 30 minutes, on ice and protected from light. Cells were again washed twice with FACs buffer. Stained cells were analyzed on the FACs Calibur flow cytometer (BD BioSciences, San Jose, Calif.).

human NTB-A [5] = target: T1, human NTB-A; assay: cell-based or functional assay; remark: listed apart in the source
human NTB-A [6] = target: T1, human NTB-A; assay: saturation binding of Alexa Fluor 647-labeled antibody on Ramos cells, flow cytometry
Protocol: as §2

Binder | Maximum % Phagocytosis (ADCP), Raji cell line (human NTB-A [1]) | Maximum % Phagocytosis (ADCP), WIL2-S cell line (human NTB-A [1]) | Maximum % Phagocytosis (ADCP), normal human T cells (human NTB-A [1]) | IC50, 96 hour cytotoxicity (Cell-Titer Glo), resting human B cells, donor 1 (human NTB-A [5]) | IC50, 96 hour cytotoxicity (Cell-Titer Glo), resting human B cells, donor 2 (human NTB-A [5]) | IC50, 96 hour cytotoxicity (Cell-Titer Glo), resting human B cells, donor 3 (human NTB-A [5]) | also measured
B1 | 48% | 45% | 42% |  |  |  | EC50 (human NTB-A [2]): ~12 nM; EC50 (human NTB-A [3]): 3 nM; Kd (human NTB-A [4]): 2.2 nM
B2 |  |  |  | 1.47 µg/mL | 1.27 µg/mL | 3.42 µg/mL | IC50, 96 hour cytotoxicity (Cell-Titer Glo), resting human T cells, donor 4 (human NTB-A [5]): > 10 µg/mL; IC50, 96 hour cytotoxicity (Cell-Titer Glo), resting human T cells, donor 5 (human NTB-A [5]): > 10 µg/mL; IC50, 96 hour cytotoxicity (Cell-Titer Glo), resting human T cells, donor 6 (human NTB-A [5]): > 10 µg/mL
B3 |  |  |  | > 10 µg/mL | > 10 µg/mL | > 10 µg/mL | 
B4 | 44% | 45% | 33% |  |  |  | 
B5 |  |  |  |  |  |  | Kd (human NTB-A [6]): 1.68 nM
